Laboratory results as given in patent publication US20190359992.

Key:
Experiment in all cases: cell_activity
[1] = tested on: GmUbi3_T01.1 Right TALEN (synthetic construct); conditions: pair with P1; soybean protoplasts, raw 0.72%; full site SEQ 25
[2] = tested on: GmUbi3_T02.1 Right TALEN (synthetic construct); conditions: pair with P3; soybean protoplasts, raw 1.70%; full site SEQ 26
[3] = tested on: GmUbi3_T02.1 Left TALEN (synthetic construct); conditions: pair with P4; soybean protoplasts, raw 1.70%; full site SEQ 26
[4] = tested on: GmUbi3_T03.1 Right TALEN (synthetic construct); conditions: pair with P5; soybean protoplasts, raw 4.98%; full site SEQ 27
[5] = tested on: GmUbi3_T03.1 Left TALEN (synthetic construct); conditions: pair with P6; soybean protoplasts, raw 4.98%; full site SEQ 27
[6] = tested on: GmUbi3_T01.1 Left TALEN (synthetic construct); conditions: pair with P2; soybean protoplasts, raw 0.72%; full site SEQ 25

## CCAACATTACACAACT (double strand) [GmUbi3_T1 right half-site]
[1]
  activity (% normalized mutation frequency): 0.91

## CCTTCACACAACTCAT (double strand) [GmUbi3_T2 right half-site]
[2]
  activity (% normalized mutation frequency): 2.76

## CTTCCATGCTTGTCAT (double strand) [GmUbi3_T2 left half-site]
[3]
  activity (% normalized mutation frequency): 2.76

## GCCTTGAGCTAGTTGT (double strand) [GmUbi3_T3 right half-site]
[4]
  activity (% normalized mutation frequency): 8.12

## TCATCAACTGTGGAGT (double strand) [GmUbi3_T3 left half-site]
[5]
  activity (% normalized mutation frequency): 8.12

## TGTCCTCCGTCTCCGT (double strand) [GmUbi3_T1 left half-site]
[6]
  activity (% normalized mutation frequency): 0.91
